Measured values reported in US20190056395.

Molecular target: T1, MSP-MS library tetradecapeptide KWLIHPTFSYnRWP
T1 chain: KWLIHPTFSYNRWP

B1: recombinant mature Sap5 (secreted aspartyl protease 5) from Candida albicans, expressed in Pichia pastoris (protein)
chain: GPVAVTLHNEAITYTADITVGSDNQKLNVIVDTGSSDLWIPDSNVICIPKWRGDKGDFCKSAGSYSPASSRTSQNLNTRFDIKYGDGSYAKGKLYKDTVGIGGVSVRDQLFANVWSTSARKGILGIGFQSGEATEFDYDNLPISLRNQGIIGKAAYSLYLNSAEASTGQIIFGGIDKAKYSGSLVDLPITSEKKLTVGLRSVNVRGRNVDANTNVLLDSGTTISYFTRSIVRNILYAIGAQMKFDSAGNKVYVADCKTSGTIDFQFGNNLKISVPVSEFLFQTYYTSGKPFPKCEVRIRESEDNILGDNFLRSAYVVYNLDDKKISMAPVKYTSESDIVAIN
**Q.** B1 was tested. Which “kcat/Km (mass spectrometry-based cleavage time course)” value did it give?
**A.** Its value is 4.4×10^4 M^-1 s^-1 (Sap5).

B2: recombinant mature Sap6 (secreted aspartyl protease 6) from Candida albicans, expressed in Pichia pastoris (protein)
chain: GPVAVKLDNEIITYSADITVGSNNQKLSVIVDTGSSDLWIPDSKAICIPKWRGDCGDFCKNNGSYSPAASSTSKNLNTRFEIKYADGSYAKGNLYQDTVGIGGASVKNQLFANVWSTSAHKGILGIGFQTNEATRTPYDNLPISLKKQGIIAKNAYSLFLNSPEASSGQIIFGGIDKAKYSGSLVELPITSDRTLSVGLRSVNVMGRNVNVNAGVLLDSGTTISYFTPSIARSIIYALGGQVHFDSAGNKAYVADCKTSGTVDFQFDKNLKISVPASEFLYQLYYTNGKPYPKCEIRVRESEDNILGDNFMRSAYIVYDLDDKKISMAQVKYTSESNIVAIN
**Q.** For B2, which “kcat/Km (mass spectrometry-based cleavage time course)” value is on record?
**A.** The value was 2.0×10^5 M^-1 s^-1 (Sap6).
